Common to all, as to assay: purified protein
Common to all, as to format: biochemical, Pseudomonas putida

Series [1] concerns T1, O=C(O)CC(O)(CC(=O)C(=O)O)C(=O)O.
T1 construct: recombinant from pT7-7, expressed in E. coli; chelex-treated apo-enzyme reconstituted with MgCl2
Conditions: without Pi, 1 mM MgCl2, 0.1 M HEPES pH 8.0, 25 °C, racemic substrate.

Another series concerns T2, O=C(O)CC(=O)C(=O)O.
T2 construct: recombinant from pT7-7, expressed in E. coli; chelex-treated apo-enzyme reconstituted with MgCl2
Conditions: without Pi, 1 mM MgCl2, 0.1 M HEPES pH 8.0, 25 °C.

Series [2] deals with T3, CC(O)(CC(=O)C(=O)O)C(=O)O.
T3 construct: recombinant from pT7-7, expressed in E. coli; chelex-treated apo-enzyme reconstituted with MgCl2
Conditions: without Pi, 1 mM MgCl2, 0.1 M HEPES pH 8.0, 25 °C, racemic substrate.

The text below walks through data of publication PMC5065237, “Investigation into the Mode of Phosphate Activation in the 4-Hydroxy-4-Methyl-2-Oxoglutarate/4-Carboxy-4-Hydroxy-2-Oxoadipate Aldolase from Pseudomonas putida F1” (PLoS ONE, 2016).

Consider “HMG/CHA aldolase (Pseudomonas putida F1)”, for which, in series [1], the Km amounted to 15.0 ± 1.3 µM, the turnover number (kcat) worked out at 13.4 ± 0.31 s⁻¹ and the kcat/Km amounted to 893000 ± 80000 M⁻¹ s⁻¹. Moreover, in the series with O=C(O)CC(=O)C(=O)O, the Km worked out at 298 ± 30 µM, the kcat was 1.86 ± 0.18 s⁻¹ and the catalytic efficiency (kcat/Km) amounted to 6240 ± 870 M⁻¹ s⁻¹. Also, in series [2], the Km was found to be 188 ± 11 µM, the kcat is 15.6 ± 0.54 s⁻¹ and the specificity constant (kcat/Km) is 83000 ± 5600 M⁻¹ s⁻¹.

Consider “HMG/CHA aldolase (Pseudomonas putida F1; G144V)”, for which, in series [2], the Michaelis-Menten constant (Km) was 1390 ± 160 µM, the kcat was 0.215 ± 0.015 s⁻¹ and the kcat/Km turned out to be 155 ± 21 M⁻¹ s⁻¹.

On to “HMG/CHA aldolase (Pseudomonas putida F1; H75A)”, for which, in series [2], the Km was found to be 389 ± 22 µM, the kcat stood at 22.3 ± 0.75 s⁻¹ and the kcat/Km is 57300 ± 3800 M⁻¹ s⁻¹.

On to “HMG/CHA aldolase (Pseudomonas putida F1; K147A)”, for which, in series [2], the Km amounted to 2010 ± 210 µM, the turnover number (kcat) was found to be 0.014 ± 0.00039 s⁻¹ and the catalytic efficiency (kcat/Km) is 6.97 ± 0.75 M⁻¹ s⁻¹.

Take “HMG/CHA aldolase (Pseudomonas putida F1; N71A)”: in series [2], the Michaelis constant (Km) is 796 ± 70 µM, the turnover number (kcat) is 0.014 ± 0.0011 s⁻¹ and the specificity constant (kcat/Km) is 17.6 ± 2.1 M⁻¹ s⁻¹.

On to “HMG/CHA aldolase (Pseudomonas putida F1; R40A)”, for which, in series [2], the Km turned out to be 304 ± 27 µM, the kcat turned out to be 6.7 ± 0.14 s⁻¹ and the catalytic efficiency (kcat/Km) is 22000 ± 2100 M⁻¹ s⁻¹.

Turning to “HMG/CHA aldolase (Pseudomonas putida F1; R123K)”, in series [2], the Km was found to be 3210 ± 210 µM, the catalytic constant (kcat) stood at 0.086 ± 0.0046 s⁻¹ and the kcat/Km stood at 26.7 ± 2.3 M⁻¹ s⁻¹.

Regarding “HMG/CHA aldolase (Pseudomonas putida F1; R195A)”, in series [2], the Km came out at 1370 ± 58 µM, the kcat came out at 6.72 ± 0.19 s⁻¹ and the specificity constant (kcat/Km) was 4910 ± 250 M⁻¹ s⁻¹.

Consider “HMG/CHA aldolase (Pseudomonas putida F1; T145A)”, for which, in series [2], the Km was determined as 1080 ± 88 µM, the kcat worked out at 0.889 ± 0.057 s⁻¹ and the kcat/Km came to 823 ± 85 M⁻¹ s⁻¹.
